Data: publication PMC9482650, “Quantitative fragmentomics allow affinity mapping of interactomes” (Nature Communications, 2022)

Key:
Assay in all cases: holdup assay
Set-up in all cases: key: below the threshold = too weak to quantify, mostly under pKd 3.1 to 4
LNX2_3, Q8N448 = target: T1, LNX2_3, Q8N448
T1 sequence (Q8N448 463-564, limits assumed, looked up): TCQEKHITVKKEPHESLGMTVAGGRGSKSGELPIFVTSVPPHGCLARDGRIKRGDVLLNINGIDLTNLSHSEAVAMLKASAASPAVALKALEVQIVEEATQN

GRIP2_6, Q9C0E4 = target: GRIP2_6, Q9C0E4
RAPGEF6, Q8TEU7 = target: T2, RAPGEF6, Q8TEU7
T2 sequence (Q8TEU7 525-625, limits assumed, looked up): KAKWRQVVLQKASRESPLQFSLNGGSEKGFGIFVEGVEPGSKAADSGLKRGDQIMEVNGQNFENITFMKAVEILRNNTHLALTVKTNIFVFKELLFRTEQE

SCRIB_2, Q14160 = target: SCRIB_2, Q14160
APBA2_1, Q99767 = target: T3, APBA2_1, Q99767
T3 sequence (Q99767 563-664, limits assumed, looked up): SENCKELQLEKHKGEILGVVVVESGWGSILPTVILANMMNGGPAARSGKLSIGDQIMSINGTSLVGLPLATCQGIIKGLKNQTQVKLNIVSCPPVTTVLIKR

ARHGEF11, O15085 = target: T4, ARHGEF11, O15085
T4 sequence (O15085 42-136, limits assumed, looked up): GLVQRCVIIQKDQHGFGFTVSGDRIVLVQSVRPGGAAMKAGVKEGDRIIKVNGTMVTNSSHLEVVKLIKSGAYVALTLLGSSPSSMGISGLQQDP

TJP2_1, Q9UDY2 = target: TJP2_1, Q9UDY2
DFNB31_2, Q9P202 = target: T5, DFNB31_2, Q9P202
T5 sequence (Q9P202 274-371, limits assumed, looked up): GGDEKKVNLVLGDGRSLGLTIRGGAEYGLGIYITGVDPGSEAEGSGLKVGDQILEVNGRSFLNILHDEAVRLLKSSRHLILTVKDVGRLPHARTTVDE

IL16_4, Q14005 = target: IL16_4, Q14005
GRASP, Q7Z6J2 = target: GRASP, Q7Z6J2
APBA2_2, Q99767 = target: T6, APBA2_2, Q99767
T6 sequence (Q99767 654-744, limits assumed, looked up): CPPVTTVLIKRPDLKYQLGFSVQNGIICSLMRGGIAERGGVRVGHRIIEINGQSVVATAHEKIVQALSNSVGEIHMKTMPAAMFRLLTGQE

SNTB1, Q13884 = target: T7, SNTB1, Q13884
T7 sequence (Q13884 107-205, limits assumed, looked up): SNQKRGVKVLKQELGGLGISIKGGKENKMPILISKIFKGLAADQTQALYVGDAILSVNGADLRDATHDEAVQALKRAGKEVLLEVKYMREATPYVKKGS

SNX27, Q96L92 = target: SNX27, Q96L92
MPDZ_10, O75970 = target: T8, MPDZ_10, O75970
T8 sequence (O75970 1624-1722, limits assumed, looked up): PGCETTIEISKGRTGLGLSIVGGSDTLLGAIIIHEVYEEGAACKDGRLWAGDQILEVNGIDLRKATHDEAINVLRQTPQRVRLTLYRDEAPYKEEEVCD

IL16_3, Q14005 = target: IL16_3, Q14005
DLG1_1, Q12959 = target: DLG1_1, Q12959
PDZD2_2, O15018 = target: T9, PDZD2_2, O15018
T9 sequence (O15018 329-429, limits assumed, looked up): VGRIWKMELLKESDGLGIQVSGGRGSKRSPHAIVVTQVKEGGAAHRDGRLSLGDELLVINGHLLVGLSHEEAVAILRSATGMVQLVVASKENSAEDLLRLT

DLG5_1, Q8TDM6 = target: DLG5_1, Q8TDM6
DVL3, Q92997 = target: T10, DVL3, Q92997
T10 sequence (Q92997 244-331, limits assumed, looked up): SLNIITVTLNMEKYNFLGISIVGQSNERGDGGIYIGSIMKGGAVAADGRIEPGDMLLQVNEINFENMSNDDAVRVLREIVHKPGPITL

MPP6, Q9NZW5 = target: T11, MPP6, Q9NZW5
T11 sequence (Q9NZW5 125-219, limits assumed, looked up): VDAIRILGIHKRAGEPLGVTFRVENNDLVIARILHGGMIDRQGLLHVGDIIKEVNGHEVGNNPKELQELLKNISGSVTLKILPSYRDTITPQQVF

GRIP2_3, Q9C0E4 = target: GRIP2_3, Q9C0E4
SCRIB_3, Q14160 = target: SCRIB_3, Q14160
LIMK2, P53671 = target: LIMK2, P53671
HTRA1, Q92743 = target: HTRA1, Q92743
TJP1_2, Q07157 = target: TJP1_2, Q07157
NHERF4_1, Q86UT5-2 = target: NHERF4_1, Q86UT5-2
[1] = plain residues with an end cap or a label only (N-terminal biotin on a linker: ttds)
[2] = plain residues with an end cap or a label only (N-terminal biotin on a linker: ado-ado)
[3] = plain residues with an end cap or a label only (N-terminal biotin on a linker: ahx)

Chain of SCRIB_2, Q14160 (Q14160 857-960): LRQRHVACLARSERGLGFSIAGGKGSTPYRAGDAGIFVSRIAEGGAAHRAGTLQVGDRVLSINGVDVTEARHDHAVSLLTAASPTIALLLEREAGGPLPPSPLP
Chain of NHERF4_1, Q86UT5-2 (Q86UT5 other isoform, or with tags, fused parts or gaps): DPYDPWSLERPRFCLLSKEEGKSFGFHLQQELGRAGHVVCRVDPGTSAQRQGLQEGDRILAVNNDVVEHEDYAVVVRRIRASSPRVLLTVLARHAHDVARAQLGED
Chain of GRIP2_3, Q9C0E4 (Q9C0E4 238-339): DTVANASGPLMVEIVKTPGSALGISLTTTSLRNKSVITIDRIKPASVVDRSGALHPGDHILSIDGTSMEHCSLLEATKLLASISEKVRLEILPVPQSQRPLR
Chain of TJP1_2, Q07157 (Q07157 181-274): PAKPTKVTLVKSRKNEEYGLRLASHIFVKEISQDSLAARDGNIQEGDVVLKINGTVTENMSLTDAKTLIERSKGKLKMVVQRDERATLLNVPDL
Chain of SCRIB_3, Q14160 (Q14160 999-1103): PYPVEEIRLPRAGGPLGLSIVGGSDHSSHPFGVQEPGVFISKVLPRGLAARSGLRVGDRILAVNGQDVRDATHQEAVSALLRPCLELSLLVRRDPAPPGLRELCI
Chain of LIMK2, P53671 (P53671 143-248): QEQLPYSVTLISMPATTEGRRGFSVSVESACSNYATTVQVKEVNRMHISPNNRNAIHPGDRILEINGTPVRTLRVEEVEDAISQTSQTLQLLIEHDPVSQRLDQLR
Chain of HTRA1, Q92743 (Q92743 360-477): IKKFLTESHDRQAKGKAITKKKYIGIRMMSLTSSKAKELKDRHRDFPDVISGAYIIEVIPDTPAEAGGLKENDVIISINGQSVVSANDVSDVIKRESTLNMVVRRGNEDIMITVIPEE
Chain of DLG5_1, Q8TDM6 (Q8TDM6 617-713): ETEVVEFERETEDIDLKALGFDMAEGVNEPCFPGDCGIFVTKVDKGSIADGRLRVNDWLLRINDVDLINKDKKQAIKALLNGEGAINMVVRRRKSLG
Chain of IL16_4, Q14005 (Q14005 1229-1329): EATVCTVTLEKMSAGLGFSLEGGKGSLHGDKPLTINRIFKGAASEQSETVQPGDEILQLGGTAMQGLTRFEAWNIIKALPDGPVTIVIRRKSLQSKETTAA
Chain of IL16_3, Q14005 (Q14005 1107-1207): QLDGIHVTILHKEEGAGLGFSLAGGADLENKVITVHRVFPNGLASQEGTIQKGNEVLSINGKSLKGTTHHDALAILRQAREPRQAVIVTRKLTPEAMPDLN
Chain of GRASP, Q7Z6J2 (Q7Z6J2 96-193): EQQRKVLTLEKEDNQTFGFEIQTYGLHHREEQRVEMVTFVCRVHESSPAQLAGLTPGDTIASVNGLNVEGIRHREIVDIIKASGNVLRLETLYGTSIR
Chain of GRIP2_6, Q9C0E4 (Q9C0E4 648-740): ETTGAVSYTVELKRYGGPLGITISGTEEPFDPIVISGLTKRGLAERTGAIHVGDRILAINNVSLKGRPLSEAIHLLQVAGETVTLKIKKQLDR
Chain of TJP2_1, Q9UDY2 (Q9UDY2 24-128): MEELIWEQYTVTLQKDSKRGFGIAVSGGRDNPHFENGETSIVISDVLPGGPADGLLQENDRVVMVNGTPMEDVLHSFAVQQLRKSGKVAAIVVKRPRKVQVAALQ

## HIVEALETDV [PBK, Q96KB5]
LNX2_3, Q8N448; [1]
  pKd: below the threshold
GRIP2_6, Q9C0E4; [1]
  pKd: below the threshold
RAPGEF6, Q8TEU7; [1]
  pKd: below the threshold
SCRIB_2, Q14160; [1]
  pKd: 5.32
APBA2_1, Q99767; [1]
  pKd: below the threshold
ARHGEF11, O15085; [1]
  pKd: 4.31
TJP2_1, Q9UDY2; [1]
  pKd: below the threshold
DFNB31_2, Q9P202; [1]
  pKd: below the threshold
IL16_4, Q14005; [1]
  pKd: below the threshold
GRASP, Q7Z6J2; [1]
  pKd: below the threshold
APBA2_2, Q99767; [1]
  pKd: below the threshold
SNTB1, Q13884; [1]
  pKd: 5.29
SNX27, Q96L92; [1]
  pKd: 4.83
MPDZ_10, O75970; [1]
  pKd: below the threshold
IL16_3, Q14005; [1]
  pKd: below the threshold
DLG1_1, Q12959; [1]
  pKd: 5.01
PDZD2_2, O15018; [1]
  pKd: 4.84
DLG5_1, Q8TDM6; [1]
  pKd: below the threshold
DVL3, Q92997; [1]
  pKd: below the threshold
MPP6, Q9NZW5; [1]
  pKd: below the threshold
GRIP2_3, Q9C0E4; [1]
  pKd: below the threshold
SCRIB_3, Q14160; [1]
  pKd: 5.18
LIMK2, P53671; [1]
  pKd: below the threshold
HTRA1, Q92743; [1]
  pKd: below the threshold
TJP1_2, Q07157; [1]
  pKd: below the threshold
NHERF4_1, Q86UT5-2; [1]
  pKd: below the threshold

## SVVSERISSV [HTR2C, P28335]
LNX2_3, Q8N448; [2]
  pKd: below the threshold
GRIP2_6, Q9C0E4; [2]
  pKd: below the threshold
RAPGEF6, Q8TEU7; [2]
  pKd: below the threshold
SCRIB_2, Q14160; [2]
  pKd: below the threshold
APBA2_1, Q99767; [2]
  pKd: below the threshold
ARHGEF11, O15085; [2]
  pKd: 3.84
TJP2_1, Q9UDY2; [2]
  pKd: below the threshold
DFNB31_2, Q9P202; [2]
  pKd: below the threshold
IL16_4, Q14005; [2]
  pKd: below the threshold
GRASP, Q7Z6J2; [2]
  pKd: 4.55
APBA2_2, Q99767; [2]
  pKd: below the threshold
SNTB1, Q13884; [2]
  pKd: 4.89
SNX27, Q96L92; [2]
  pKd: 5.06
MPDZ_10, O75970; [2]
  pKd: 4.29
IL16_3, Q14005; [2]
  pKd: below the threshold
DLG1_1, Q12959; [2]
  pKd: 4.07
PDZD2_2, O15018; [2]
  pKd: 5.56
DLG5_1, Q8TDM6; [2]
  pKd: below the threshold
DVL3, Q92997; [2]
  pKd: below the threshold
MPP6, Q9NZW5; [2]
  pKd: below the threshold
GRIP2_3, Q9C0E4; [2]
  pKd: below the threshold
SCRIB_3, Q14160; [2]
  pKd: 3.71
LIMK2, P53671; [2]
  pKd: below the threshold
HTRA1, Q92743; [2]
  pKd: 4.18
TJP1_2, Q07157; [2]
  pKd: below the threshold
NHERF4_1, Q86UT5-2; [2]
  pKd: 3.72

## KTSAHHATFV [RGS12, O14924]
LNX2_3, Q8N448; [3]
  pKd: below the threshold
GRIP2_6, Q9C0E4; [3]
  pKd: below the threshold
RAPGEF6, Q8TEU7; [3]
  pKd: below the threshold
SCRIB_2, Q14160; [3]
  pKd: 3.47
APBA2_1, Q99767; [3]
  pKd: below the threshold
ARHGEF11, O15085; [3]
  pKd: 3.6
TJP2_1, Q9UDY2; [3]
  pKd: 4.45
DFNB31_2, Q9P202; [3]
  pKd: below the threshold
IL16_4, Q14005; [3]
  pKd: below the threshold
GRASP, Q7Z6J2; [3]
  pKd: 4.12
APBA2_2, Q99767; [3]
  pKd: below the threshold
SNTB1, Q13884; [3]
  pKd: 3.47
SNX27, Q96L92; [3]
  pKd: 4.05
MPDZ_10, O75970; [3]
  pKd: 3.98
IL16_3, Q14005; [3]
  pKd: below the threshold
DLG1_1, Q12959; [3]
  pKd: 3.93
PDZD2_2, O15018; [3]
  pKd: 5.04
DLG5_1, Q8TDM6; [3]
  pKd: below the threshold
DVL3, Q92997; [3]
  pKd: 3.56
MPP6, Q9NZW5; [3]
  pKd: below the threshold
GRIP2_3, Q9C0E4; [3]
  pKd: below the threshold
SCRIB_3, Q14160; [3]
  pKd: 4.18
LIMK2, P53671; [3]
  pKd: below the threshold
HTRA1, Q92743; [3]
  pKd: 4.43
TJP1_2, Q07157; [3]
  pKd: below the threshold
NHERF4_1, Q86UT5-2; [3]
  pKd: below the threshold
